Consider 45 molecules from US20260167673A1, “NOVEL POLYPEPTIDE, POLYPEPTIDE DERIVATIVE AND USE THEREOF” (NANJING ANJI BIOTECHNOLOGY CO., LTD., priority 2023, published 2026).

The chains are these.
T1: AQP2 protein (UniProt P41181 1-271, limits assumed)
T1 construct: also called protein AQP2
T1 sequence (looked up): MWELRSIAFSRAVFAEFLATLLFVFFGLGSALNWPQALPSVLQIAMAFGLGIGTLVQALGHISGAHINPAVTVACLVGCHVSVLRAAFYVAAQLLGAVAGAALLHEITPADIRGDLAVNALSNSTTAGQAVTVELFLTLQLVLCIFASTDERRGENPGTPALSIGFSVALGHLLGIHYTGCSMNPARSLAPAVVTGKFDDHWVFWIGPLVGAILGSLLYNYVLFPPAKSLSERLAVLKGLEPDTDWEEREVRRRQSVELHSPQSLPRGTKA

B1: micropeptide HMMW (peptide)
peptide: MERAGVPGFSPRRSSVEAKMQSTSCSVRKSSTVTAWPAVVLLLSWGQRRGG
notes: 51-residue micropeptide encoded by a lncRNA
B2: HMMW-42A (peptide)
peptide: B1 peptide with L42A
notes: Alanine mutant of HMMW at position 42; solid-phase synthesis
B3: HMMW-41A (peptide)
peptide: B1 peptide with L41A
notes: Alanine mutant of HMMW at position 41; solid-phase synthesis
B4: HMMW-49A (peptide)
peptide: B1 peptide with R49A
notes: Alanine mutant of HMMW at position 49; solid-phase synthesis
B5: HMMW-20A (peptide)
peptide: B1 peptide with M20A
notes: Alanine mutant of HMMW at position 20; solid-phase synthesis
B6: HMMW-40A (peptide)
peptide: B1 peptide with V40A
notes: Alanine mutant of HMMW at position 40; solid-phase synthesis
B7: HMMW-17A (peptide)
peptide: B1 peptide with E17A
notes: Alanine mutant of HMMW at position 17; solid-phase synthesis
B8: HMMW-13A (peptide)
peptide: B1 peptide with R13A
notes: Alanine mutant of HMMW at position 13; solid-phase synthesis
B9: HMMW-19A (peptide)
peptide: B1 peptide with K19A
notes: Alanine mutant of HMMW at position 19; solid-phase synthesis
B10: HMMW-30A (peptide)
peptide: B1 peptide with S30A
notes: Alanine mutant of HMMW at position 30; solid-phase synthesis
B11: HMMW-31A (peptide)
peptide: B1 peptide with S31A
notes: Alanine mutant of HMMW at position 31; solid-phase synthesis
B12: HMMW-50A (peptide)
peptide: B1 peptide with G50A
notes: Alanine mutant of HMMW at position 50; solid-phase synthesis
B13: HMMW-3A (peptide)
peptide: B1 peptide with R3A
notes: Alanine mutant of HMMW at position 3; solid-phase synthesis
B14: HMMW-22A (peptide)
peptide: B1 peptide with S22A
notes: Alanine mutant of HMMW at position 22; solid-phase synthesis
B15: HMMW-43A (peptide)
peptide: B1 peptide with L43A
notes: Alanine mutant of HMMW at position 43; solid-phase synthesis
B16: HMMW-10A (peptide)
peptide: B1 peptide with S10A
notes: Alanine mutant of HMMW at position 10; solid-phase synthesis
B17: HMMW-32A (peptide)
peptide: B1 peptide with T32A
notes: Alanine mutant of HMMW at position 32; solid-phase synthesis
B18: HMMW-48A (peptide)
peptide: B1 peptide with R48A
notes: Alanine mutant of HMMW at position 48; solid-phase synthesis
B19: HMMW-11A (peptide)
peptide: B1 peptide with P11A
notes: Alanine mutant of HMMW at position 11; solid-phase synthesis
B20: HMMW-25A (peptide)
peptide: B1 peptide with C25A
notes: Alanine mutant of HMMW at position 25; solid-phase synthesis
B21: HMMW-2A (peptide)
peptide: B1 peptide with E2A
notes: Alanine mutant of HMMW at position 2; solid-phase synthesis
B22: HMMW-28A (peptide)
peptide: B1 peptide with R28A
notes: Alanine mutant of HMMW at position 28; solid-phase synthesis
B23: HMMW-8A (peptide)
peptide: B1 peptide with G8A
notes: Alanine mutant of HMMW at position 8; solid-phase synthesis
B24: HMMW-44A (peptide)
peptide: B1 peptide with S44A
notes: Alanine mutant of HMMW at position 44; solid-phase synthesis
B25: HMMW-45A (peptide)
peptide: B1 peptide with W45A
notes: Alanine mutant of HMMW at position 45; solid-phase synthesis
B26: HMMW-12A (peptide)
peptide: B1 peptide with R12A
notes: Alanine mutant of HMMW at position 12; solid-phase synthesis
B27: HMMW-27A (peptide)
peptide: B1 peptide with V27A
notes: Alanine mutant of HMMW at position 27; solid-phase synthesis
B28: HMMW-21A (peptide)
peptide: B1 peptide with Q21A
notes: Alanine mutant of HMMW at position 21; solid-phase synthesis
B29: HMMW-9A (peptide)
peptide: B1 peptide with F9A
notes: Alanine mutant of HMMW at position 9; solid-phase synthesis

Where a chain is given by its changes, count along the chain named. Where no end group is shown, it is not given here.

Tested on in one data set: not listed separately
Description: Solubility of the synthesized polypeptides. Particulars: PBS/0.1% DMSO.
As for “AGVPGFSPRRSSVEAKMQSTSCSVRKSSTVTAWPAVVLLLSWGQRRGG [HMMW-1]”, the “Solubility PBS/0.1% DMSO” value is reported as “Soluble”. Still for that read-out and setting: under “MERAGVPGFSPRRSSKMQSTSCSVRKSSTVTAWPAVVLLLSWGQRRGG [HMMW-6]” stands “Soluble”.

Turning to “MERAGVPGFSPRRSSVEAKMQCSVRKSSTVTAWPAVVLLLSWGQRRGG [HMMW-8]”, the “Solubility PBS/0.1% DMSO” value is recorded as “Soluble”.

On to “MERAGVPGFSPRRSSVEAKMQSTSCSVRKSSTVPAVVLLLSWGQRRGG [HMMW-12]”, for which the “Solubility PBS/0.1% DMSO” value is “Soluble”. Take “MERAGVPGFSPRRSSVEAKMQSTSCSVRKSSTVTAWPAVLSWGQRRGG [HMMW-14]”: the “Solubility PBS/0.1% DMSO” value was “Soluble”. Regarding “MERAGVPGFSPRRSSVEAKMQSTSCSVRKSSTVTAWPAVVLLGQRRGG [HMMW-15]”, the “Solubility PBS/0.1% DMSO” value is on record as “Soluble”. Consider “MERAGVPGFSPRRSSVEAKMQSTSCSVRKSSTVTAWPAVVLLLSWRGG [HMMW-16]”, for which the “Solubility PBS/0.1% DMSO” value is “Soluble”. “MERAGVPGFSPRRSSVEAKMQSTSRKSSTVTAWPAVVLLLSWGQRRGG [HMMW-9]”: the “Solubility PBS/0.1% DMSO” value was “Soluble”.

For “MERAGVPGFSPRRSSVEASTSCSVRKSSTVTAWPAVVLLLSWGQRRGG [HMMW-7]”, the “Solubility PBS/0.1% DMSO” value is on record as “Soluble”. For “MERAGVPGFSPRVEAKMQSTSCSVRKSSTVTAWPAVVLLLSWGQRRGG [HMMW-5]”, the “Solubility PBS/0.1% DMSO” value is reported as “Soluble”. As to “MERAGVSPRRSSVEAKMQSTSCSVRKSSTVTAWPAVVLLLSWGQRRGG [HMMW-3]”, the “Solubility PBS/0.1% DMSO” value was “Soluble”. On the same count and under the same terms, the value for “MERPGFSPRRSSVEAKMQSTSCSVRKSSTVTAWPAVVLLLSWGQRRGG [HMMW-2]” was “Soluble”.

The data set is the same for the next values; noted with them: polypeptides obtained by chemical solid-phase synthesis.
For “GVPGFSPRRSSVEAKMQSTSCSVRKSSTVTAWPAVVLLLSWGQRRGG [HMMW5-51]”, the solubility entry is given as “good solubility”. Same read-out and setting: the value for “MQSTSCSVRKSSTVTAWPAVVLLLSWGQRRGG [HMMW20-51]” was “good solubility”; that for “SPRRSSVEAKMQSTSCSVRKSSTVTAWPAVVLLLSWGQRRGG [HMMW10-51]” was “good solubility”. As for “SVEAKMQSTSCSVRKSSTVTAWPAVVLLLSWGQRRGG [HMMW15-51]”, the solubility result is recorded as “good solubility”.

The next data set concerns the target T1, AQP2 protein. Nature of the data set: microscale thermophoresis (MST); column head 'Affinity (µM)'.
Details: not given
The method, then:
Molecular docking simulation was performed on the micropeptide HMMW and a binding protein AQP2 thereof using MOE software, to identify predicted potential interaction sites. The docking simulation was divided into the following two groups: (1) random docking of an AQP2 homotetramer with the HMMW, without limiting a binding region; and (2) random docking of an AQP2 monomer with the HMMW, without limiting a binding region. Interaction sites obtained from the above two docking methods were integrated and analyzed, and all possible binding amino acids were selected as potential key sites for alanine (Ala) mutations. Due to alanine being the smallest chiral amino acid, the impact of a specific amino acid on an overall protein biological activity can be distinguished by systematically and sequentially substituting each amino acid in a sequence with Ala. The predicted polypeptides were obtained by solid-phase synthesis, and the affinity of different mutated polypeptides to the AQP2 protein was detected by microscale thermophoresis (MST) assay.
In general terms: In MST a laser heats a spot of the sample, and binding alters the fluorescence response.
Regarding B1, the affinity, expressed as Kd, was 3.07 µM. B2 returned a Kd of 0.25 µM. On the same count and under the same terms, under B3 stands 4.32 µM. B4 registered a Kd of 20.8 µM. Against the preceding molecule, the Kd is about 4.8-fold higher.

On to B5, for which the Kd worked out at 2.59 µM. As for B6, the Kd turned out to be 1.19 µM. As to B7, binding was put at a Kd of 3.93 µM. Take B8: the Kd was determined as 6.61 µM. For the molecule B9, the Kd is 5.11 µM. This Kd and that of the molecule before are within 1.5-fold of each other.

Turning to B10, the dissociation constant (Kd) was found to be 2.23 µM. The molecule B11 registered a Kd of 3.06 µM. With B12, the Kd came to 0.55 µM. On the same count and under the same terms, the value for B13 was 2.8 µM. With B14, binding was characterised by a dissociation constant (Kd) of 3.21 µM. Same read-out and setting: under B15 stands 0.36 µM; under B16, 4.03 µM. B17 gave a dissociation constant Kd of 2.01 µM. As for B18, the Kd came to 11.6 µM. B19 yielded a Kd of 2.33 µM. Still for that read-out and setting: the value for B20 was 1.97 µM; that for B21 was 2.5 µM. On the same count and under the same terms, the value for B22 was 2.27 µM.

Molecule B23 yielded a Kd of 14.8 µM. In turn, B24 returned a dissociation constant Kd of 5.23 µM. The molecule B25 had a Kd of 3.24 µM.

Regarding B26, the affinity, expressed as Kd, was 1.12 µM. Same read-out and setting: the value for B27 was 2.39 µM; that for B28 was 7.64 µM; that for B29 was 3.95 µM.

The term Kd denotes a measure of binding affinity in units of concentration. A lower Kd goes with higher affinity.
